Test results reported in patent publication US20220033501A1 (SHANGHAI PHARMAEXPLORER, published 2022).

T1: human TIM-3 on CHOK1 stable cell line (CHOK1-hTIM-3) (human, UniProt Q8TDQ0 22-301)
T1 sequence: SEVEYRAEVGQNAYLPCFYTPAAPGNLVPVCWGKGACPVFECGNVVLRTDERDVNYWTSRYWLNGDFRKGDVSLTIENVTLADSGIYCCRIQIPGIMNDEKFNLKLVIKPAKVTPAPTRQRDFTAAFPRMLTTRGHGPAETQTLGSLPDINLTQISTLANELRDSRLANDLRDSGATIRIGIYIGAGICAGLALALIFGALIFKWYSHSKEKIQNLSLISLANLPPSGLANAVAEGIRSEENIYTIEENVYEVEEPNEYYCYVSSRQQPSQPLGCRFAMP

T2: monkey TIM-3 on CHOK1 stable cell line (CHOK1-cTIM-3) (monkey)
T2 chain: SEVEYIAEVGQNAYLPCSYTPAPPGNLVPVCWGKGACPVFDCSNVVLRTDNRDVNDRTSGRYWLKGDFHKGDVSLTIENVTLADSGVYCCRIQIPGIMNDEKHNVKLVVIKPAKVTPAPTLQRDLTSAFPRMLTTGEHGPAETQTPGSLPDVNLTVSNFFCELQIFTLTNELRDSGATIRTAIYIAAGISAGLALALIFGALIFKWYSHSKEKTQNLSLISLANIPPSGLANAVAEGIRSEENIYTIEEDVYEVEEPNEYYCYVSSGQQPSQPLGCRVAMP

T3: human TIM-3 extracellular domain protein with hFc tag (hTIM-3-hFc) (human, UniProt Q8TDQ0 22-200)
T3 construct: not shown: human IgG Fc fragment (hFc) of the pCpC vector
T3 sequence: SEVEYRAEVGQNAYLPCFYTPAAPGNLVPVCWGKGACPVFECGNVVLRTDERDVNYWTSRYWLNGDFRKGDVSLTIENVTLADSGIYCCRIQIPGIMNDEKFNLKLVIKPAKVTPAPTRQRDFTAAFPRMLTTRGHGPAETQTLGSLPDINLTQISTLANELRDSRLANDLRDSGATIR

T4: human TIM-3 protein with hFc tag (hTIM-3-hFc protein) (human, UniProt Q8TDQ0 22-200)
T4 construct: also called immunogen 1; human TIM-3 extracellular domain protein; not shown: human IgG Fc fragment (hFc) of the pCpC vector
T4 sequence: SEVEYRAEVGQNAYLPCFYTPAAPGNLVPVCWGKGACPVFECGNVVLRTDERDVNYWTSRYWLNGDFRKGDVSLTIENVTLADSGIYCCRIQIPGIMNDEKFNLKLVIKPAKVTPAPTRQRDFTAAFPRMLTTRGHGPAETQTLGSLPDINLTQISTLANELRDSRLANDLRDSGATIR

T5: monkey TIM-3 protein with hFc tag (cTIM-3-hFc protein) (monkey; human)
T5 construct: Made in HEK293 cells; also called monkey TIM-3 extracellular domain protein; not shown: human IgG Fc fragment (hFc) of the pCpC vector
T5 chain: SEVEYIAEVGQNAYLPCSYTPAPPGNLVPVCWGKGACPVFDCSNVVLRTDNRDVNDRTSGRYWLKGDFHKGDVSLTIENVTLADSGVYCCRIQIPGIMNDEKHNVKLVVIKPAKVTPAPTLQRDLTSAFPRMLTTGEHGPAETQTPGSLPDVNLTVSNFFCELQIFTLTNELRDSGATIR

T6: murine TIM-3 protein with hFc tag (mTIM-3-hFc protein) (mouse; human, UniProt Q8VIM0 29-191)
T6 construct: Made in HEK293 cells; also called mouse TIM-3 extracellular domain protein; not shown: human IgG Fc fragment (hFc) of the pCpC vector
T6 chain: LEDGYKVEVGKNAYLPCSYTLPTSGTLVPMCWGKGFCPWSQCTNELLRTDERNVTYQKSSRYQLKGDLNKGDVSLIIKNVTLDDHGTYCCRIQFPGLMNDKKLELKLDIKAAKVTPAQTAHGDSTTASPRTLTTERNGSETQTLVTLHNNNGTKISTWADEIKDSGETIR


Legend:
[1] = biological target: T1, human TIM-3 on CHOK1 stable cell line …; experiment: FACS, CHOK1-hTIM-3 cells, 0.32 nM antibody
[2] = biological target: T2, monkey TIM-3 on CHOK1 stable cell line …; experiment: FACS, CHOK1-cTIM-3 cells, 0.013 nM antibody
[3] = biological target: T3, human TIM-3 extracellular domain …; experiment: ELISA, coated human TIM-3 ECD protein, 0.0001 nM antibody
[4] = biological target: T3, human TIM-3 extracellular domain …; experiment: ELISA, coated human TIM-3 ECD protein, 6.6667 nM antibody
[5] = biological target: T4, human TIM-3 protein with hFc tag …; experiment: ELISA, coated hTIM-3-hFc; antibody 66.667 nM
From the text: (§1) The amino acid sequence 22-200 of the extracellular domain of the human TIM-3 protein described in the step of Example 1 (as shown in SEQ ID NO. 71 in the sequence listing) was cloned into a pCpC vector having a human IgG Fc fragment (hFc), and transfected into HEK293 cells. The cell culture medium was collected, and purified to obtain the human TIM-3 protein with hFc tag (herein referred to as hTIM-3-hFc protein). The amino acid sequence 22-201 of the extracellular domain of the monkey TIM-3 protein (as shown in SEQ ID NO. 72 in the sequence listing) was cloned into a pCpC vector having a human IgG Fc fragment (hFc), and transfected into HEK293 cells. The cell culture medium was collected, and purified to obtain the monkey TIM-3 protein with hFc tag (herein referred to as cTIM-3-hFc protein). […] The cell culture medium was collected, and purified to obtain the murine TIM-3 protein with hFc tag (herein referred to as mTIM-3-hFc protein). Purified human, monkey, and mouse TIM-3 extracellular domain proteins (hTIM-3-hFc, cTIM-3-hFc, and mTIM-3-hFc) were diluted with PBS to a final concentration of 1.0 μg/ml and then added to a 96-well ELISA plate with 100 μl per well. The plate was sealed with plastic film and incubated overnight at 4° C. The plate was washed 4 times with the plate washing solution (PBS+0.01% Tween20) on the next day, and added with the blocking solution (PBS+0.01% Tween20+1% BSA) and sealed at room temperature for 1-2 hours. The blocking solution was poured out. 50-100 μl of the antibody sample to be tested was added to each well. The plate was incubated at 37° C. for 1-2 hours, and washed 2-3 times with plate washing solution (PBS+0. 01% Tween20). HRP (horseradish peroxidase) labeled secondary antibody was added. The plate was incubated at 37° C. for 1-2 hours, and washed 2-3 times with plate washing solution (PBS+0. 01% Tween20). […] of TMB substrate was added to each well. After incubated at room temperature for 15-30 minutes, the plate was added with […] stop solution (1.0N HCl) to each well. An ELISA plate reader (TiterMax 384plus, Molecular Device) was used to read the A450 nm value.

[6] = biological target: T5, monkey TIM-3 protein with hFc tag …; experiment: ELISA, coated cTIM-3-hFc; antibody 0.0067 nM
From the text: as §1

[7] = biological target: T6, murine TIM-3 protein with hFc tag …; experiment: ELISA, coated mTIM-3-hFc; antibody 0.0001 nM
From the text: as §1

Binder	Mean fluorescence intensity [1]	Mean fluorescence intensity [2]	OD450 [3]	OD450 [4]	OD450 [5]	OD450 [6]	OD450 [7]
215A8F2 fully human TIM-3 antibody (human IgG4, kappa) (antibody, V domains shown) VH: QVQLQQWGAGLLKPSETLSLTCTVYGGSFSGYYWNWIRQPPGKGLEWLGEINHSGSTNYNPSLKRRVTISVDTSKNQFSLKLSSVTAADTAVYYCARVYYYGPFDFWGQGTLVTVSS VL: not shown	73.6	11.5	0.08	2.86	–	–	–
215A8F2 (TIM-3 antibody purified from hybridoma, chimeric antibody of Example 2) (antibody, V domains shown, From hybridoma of Harbour H2L2 transgenic mice: human variable regions, rat constant regions) VH: QVQLQQWGAGLLKPSETLSLTCTVYGGSFSGYYWNWIRQPPGKGLEWLGEINHSGSTNYNPSLKRRVTISVDTSKNQFSLKLSSVTAADTAVYYCARVYYYGPFDFWGQGTLVTVSS VL: not shown	–	–	–	–	3.17	0.7	0.63
7A4F10 fully human TIM-3 antibody (human IgG4, kappa) (antibody, V domains shown) VH: EVQLLESGGGLVQPGGSLRLSCAASGFTFRTHLISWVRQAPGKGLEWVAAITGSGGSTYYADSVKGRFIISRDNSKNTLFLQMNSLRAEDTAVYYCAKDGGSGSYDDFWGQGTLVTVSS VL: ETVLTQSPVTLSLSPGERATLSCRASQSVGSYLAWYQQKPGQAPRLLIYDASNRATGIPARFSGSGSGTDFTLTISSLEPEDFAVYYCQQRSNWPPTFGQGTKVEIK	90.1	7.1	0.08	3.01	–	–	–
7A4F10 (TIM-3 antibody purified from hybridoma, chimeric antibody of Example 2) (antibody, V domains shown, From hybridoma of Harbour H2L2 transgenic mice: human variable regions, rat constant regions) VH: EVQLLESGGGLVQPGGSLRLSCAASGFTFRTHLISWVRQAPGKGLEWVAAITGSGGSTYYADSVKGRFIISRDNSKNTLFLQMNSLRAEDTAVYYCAKDGGSGSYDDFWGQGTLVTVSS VL: ETVLTQSPVTLSLSPGERATLSCRASQSVGSYLAWYQQKPGQAPRLLIYDASNRATGIPARFSGSGSGTDFTLTISSLEPEDFAVYYCQQRSNWPPTFGQGTKVEIK	–	–	–	–	3.08	0.57	0.65
57F4E5 fully human TIM-3 antibody (human IgG4, kappa) (antibody, V domains shown) VH: EVQLVESGGGLVQPGGSLRLSCAASGFTFSSYWMSWVRQAPGKGLEWVANIKQDGSEKYYVDSVKGRFTISRDSAKNSLYLQMNSLRAEDTAMYFCARDSNFFDYWGQGTLVTVSS VL: ETVMTQSPATLSVSPGERATLSCRASQSVSSNLAWYQRKPGQAPRLLIYFSSTRATGIPARFSGSGSGTEFTLTISSLQSEDFAVYYCQQYNNWPLTFGGGTKVEIK	69.7	11.4	0.08	2.91	–	–	–
134H3G6 (TIM-3 antibody purified from hybridoma, chimeric antibody of Example 2) (antibody, V domains shown, From hybridoma of Harbour H2L2 transgenic mice: human variable regions, rat constant regions) VH: EVQLVESGGGLVQPGGSLRLSCAASGFTFSNSWMTWVRQAPGKGLEWVANIKQAGTEKYYVDSVKGRFTISRDNAKNSLYLQMNSLRAEDTAVYYCNSGSNYFDYWGQGTLVTVSS VL: EIVMTQSPATLSVSPGERATLSCRARQNFYSNLAWYQQKPGQAPRLLIYGASTRATGIPARFSGSGSGTEFTLTISSLQSEDFAVYYCQQYNNWPLTFGGGTKVEIK	–	–	–	–	3.15	0.56	0.64
39E5H1 (TIM-3 antibody purified from hybridoma, chimeric antibody of Example 2) (antibody, V domains shown, From hybridoma of Harbour H2L2 transgenic mice: human variable regions, rat constant regions) VH: EVQLVESGGGLVQPGGSLRLSCAASGFTFSSYWMSWVRQAPGKGLEWVANIKRGGSERYYVDSVKGRFTISGDNAKNSVYLQMNSLRAEDTAVYYCARGSNWFDPWGQGTLVTVSS VL: ETVMTQSPAILSVSPGERATLSCRASQSVYSNLAWYQQKLGQAPRLLIYDASTRATGIPARFSGSGSGTEFTLTISSLQSEDFAVYYCQQYNNWPITFGQGTRLEIK	–	–	–	–	3.39	0.85	0.64
134H3G6 fully human TIM-3 antibody (human IgG4, kappa) (antibody, V domains shown) VH: EVQLVESGGGLVQPGGSLRLSCAASGFTFSNSWMTWVRQAPGKGLEWVANIKQAGTEKYYVDSVKGRFTISRDNAKNSLYLQMNSLRAEDTAVYYCNSGSNYFDYWGQGTLVTVSS VL: EIVMTQSPATLSVSPGERATLSCRARQNFYSNLAWYQQKPGQAPRLLIYGASTRATGIPARFSGSGSGTEFTLTISSLQSEDFAVYYCQQYNNWPLTFGGGTKVEIK	96.6	16.8	0.1	2.81	–	–	–
57F4E5 (TIM-3 antibody purified from hybridoma, chimeric antibody of Example 2) (antibody, V domains shown, From hybridoma of Harbour H2L2 transgenic mice: human variable regions, rat constant regions) VH: EVQLVESGGGLVQPGGSLRLSCAASGFTFSSYWMSWVRQAPGKGLEWVANIKQDGSEKYYVDSVKGRFTISRDSAKNSLYLQMNSLRAEDTAMYFCARDSNFFDYWGQGTLVTVSS VL: ETVMTQSPATLSVSPGERATLSCRASQSVSSNLAWYQRKPGQAPRLLIYFSSTRATGIPARFSGSGSGTEFTLTISSLQSEDFAVYYCQQYNNWPLTFGGGTKVEIK	–	–	–	–	3.26	1.13	0.63
18D2H2 (TIM-3 antibody purified from hybridoma, chimeric antibody of Example 2) (antibody, V domains shown, From hybridoma of Harbour H2L2 transgenic mice: human variable regions, rat constant regions) VH: EVQLVESGGDLVQPGGSLRLSCAASGFTFSTYWMTWVRQAPGRGLEWVANIKQDGSAKYYVDSVKGRFTLSRDDAKNSLYLQMNSLRAEDTAVYYCARGSNWFDYWGQGTLVTVSS VL: ETVMTQSPATLSVSPGERATLSCRANQNVYSNLAWYQQKPGQAPRLLIYDASTRATGFPARFSGSGSGTEFTLTISSLQSEDFAVYYCQQYNNWPLTFGGGTKVEIK	–	–	–	–	2.93	0.62	0.64
34B6D8 (TIM-3 antibody purified from hybridoma, chimeric antibody of Example 2) (antibody, V domains shown, From hybridoma of Harbour H2L2 transgenic mice: human variable regions, rat constant regions) VH: EVQLVESGGGLVQPGGSLRLSCAASGFTFSTYWMTWVRQAPGKRLEWVANIKQGGGDKYYVDSVKGRFTISTDNAKNSLYLQMNSLRAEDTAVYYCARGSNWFDPWGQGTLVTVSS VL: EIVMTQSPATLSMSPGERATLSCRASQSVYDNLAWYQQKPGQAPRLLIYGASTRATGIPARFSGSGSGTEFTLTISSLQSEDFALYYCQQYTHWPITFGQGTRLEIK	–	–	–	–	3.42	0.78	0.62
